From US12286461B2, “Recombinant fused polypeptide and use thereof” (priority 2019, dated 2025)

Columns and labels:
[1] = test system: SD rats with renal fibrosis; experiment: Renal fibrosis animal model (ureter ligation); format: in vivo; settings: 6 mg/kg s.c. once every five days, after 15 days
Description: A renal fibrosis animal model was established. SD rats were anesthetized with 4% chloral hydrate, injected with 1 mL/100 g intraperitoneally, fixed to an operation board, and sterilized in an operation area for further use. […] Muscular layers and abdominal walls were sewed layer by layer, the suture was disinfected with alcohol. After SD rats woke up, the rats were put into a cage for feeding. In the blank group, ureter was not ligated, and other steps were the same.
Then, the animals fell into a blank group, a model group, and recombinant fused polypeptide administration groups, and the administration was started on the second day after the operation, and was performed for 15 days. After administration for 15 days, blood was taken and supernatant was taken to detect the content of TGF-β1 in serum.

[2] = test system: SD rats with bleomycin-induced pulmonary fibrosis; experiment: Bleomycin-induced pulmonary fibrosis animal model; format: in vivo; settings: for Survival rate (%): bleomycin 5 mg/kg intratracheal, dosage 10 mg/kg (Table 2), administration cycle 15 days from day 7 after modeling; for hydroxyproline (HYP) content in lung tissue / content of TGF-β1 in serum, difference from the model group: bleomycin pulmonary fibrosis, after 15 days; for hydroxyproline (HYP) content in lung tissue: 10 mg/kg s.c. once every five days, FIG. 1; for content of TGF-β1 in serum, difference from the model group: fused polypeptides 10 mg/kg s.c. once every five days, nintedanib 25 mg/kg intragastric once a day
Description: SD rats were anesthetized by intraperitoneal injection of 4% chloral hydrate with a concentration of 1 mL/100 g. After anesthesia, the rats were fixed and their necks were disinfected by using cotton with 75% alcohol. The skin of the rat neck was longitudinally cut with scissors, and the fascia and muscle were longitudinally bluntly torn with tweezers to expose the trachea. A syringe was inserted into the trachea to inject 5 mg/kg bleomycin, while a blank group was injected with an equal amount of normal saline. Then a rat plate was quickly erected and rotated, the rats' breathing was observed, the neck wound was sterilized after rotation and was sewn, and an amoxicillin anti-inflammatory drug was sprinkled on the suture. After the operation, the rats were put back into a dry and clean cage for resting, waiting for awakening. The rats were awakened after about 1-2 hours, and then fed normally. On the 7th day after modeling, modeling group animals randomly fell into a model group, a Nintedanib positive drug group, recombinant fused polypeptide 1, 2, 3 and 4 dosage groups, and a normal control group, and the groups were administered separately for an administration cycle of 15 days. Living situations of rats were observed every day and their weights were weighed. After administration for 15 days, the eyeballs were removed and blood was taken, the rats were dissected, and lungs were taken. The content of TGF-β1 in serum and the content of HYP in lung tissues were detected.

Streptococcus pneumoniae = experiment: Mouse pneumonia model, bacterial pneumonia; format: in vivo; settings: BALB/C mouse pneumonia model, nasal drip; average ± standard deviation
From the text: (§1) A mouse pneumonia model was successfully established by using a nasal drip method. BALB/C mice with a body weight of 18-24 g were selected, and then anesthetized with ether on day 0, day 1 and day 2, respectively, prepared Streptococcus pneumoniae bacteria solution, adenovirus concentrated solution, Mycoplasma pneumoniae, Chlamydia pneumoniae, protozoa and pneumonia fungi were slowly dropped into the nasal cavity of the mice, so that the bacteria solutions entered the trachea and bronchi, and the bacteria solutions were prevented from flowing into the esophagus during the operation to avoid inactivation of the bacteria solutions, so that the mouse pneumonia model was established. After the model was successfully established, the recombinant fused polypeptides according to the present invention were administered.

protozoa = experiment: Mouse pneumonia model, protozoal pneumonia; format: in vivo; settings: BALB/C mouse pneumonia model, nasal drip; average ± standard deviation
From the text: as §1

Chlamydia pneumoniae = experiment: Mouse pneumonia model, chlamydia pneumonia; format: in vivo; settings: BALB/C mouse pneumonia model, nasal drip; average ± standard deviation
From the text: as §1

Mycoplasma pneumoniae = experiment: Mouse pneumonia model, mycoplasma pneumonia; format: in vivo; settings: BALB/C mouse pneumonia model, nasal drip; average ± standard deviation
From the text: as §1

pulmonary infections = experiment: Mouse pneumonia model, pneumonia caused by pulmonary infections; format: in vivo, BALB/C mice; settings: BALB/C mouse pneumonia model, nasal drip, average ± standard deviation
From the text: as §1

[3] = test system: mice with bleomycin-induced skin fibrosis; experiment: Bleomycin-induced skin fibrosis model; format: in vivo, C57/BL black mice; settings: C57/BL mice, bleomycin 10 μg/mL s.c. daily for 28 days, 10 mg/kg s.c. once every five days, 6 times, FIG. 6
Description: Bleomycin (10 μg/mL) was injected subcutaneously every day for 28 days to form skin fibrosis. During the modeling period, the administration groups were given drugs for treatment. After modeling, the mice were killed on the next day, and the skin tissue of the mouse back was taken to detect the content of HYP in the skin tissue. [table]

[4] = test system: mice with myocardial fibrosis; experiment: Isoprenaline-induced myocardial fibrosis animal model; format: in vivo; settings: BALB/c mice, isoprenaline 5 mg/kg s.c. daily for 7 days, 12 mg/kg s.c. (Table 5), after the 8th day, FIG. 5
Description: In the model group, the experimental mice were injected with isoprenaline (ISO) (5 mg/kg) subcutaneously on the back of the mice every day for 7 consecutive days, and the mice were injected with normal saline subcutaneously (200 μL/mouse) every day. In the blank group, normal saline was injected subcutaneously (200 μL/mouse) every day. […] After the 8th day, blood was taken and was centrifuged, the supernatant was taken, and the content of TGF-β1 in serum was detected.

adenovirus = experiment: Mouse pneumonia model, viral pneumonia; format: in vivo; settings: BALB/C mouse pneumonia model, nasal drip; average ± standard deviation
From the text: as §1

pneumonia fungi = experiment: Mouse pneumonia model, fungal pneumonia; format: in vivo; settings: BALB/C mouse pneumonia model, nasal drip; average ± standard deviation
From the text: as §1

[5] = test system: SD rats with CCl4-induced hepatic fibrosis; experiment: CCl4-induced hepatic fibrosis animal model; format: in vivo; settings: 40% CCl4 i.p. twice a week for 8 weeks, fused polypeptides 6 mg/kg s.c. once every five days
Description: Modeling was performed on the rats. Each group other than the blank group was injected with 40% CCl4 intraperitoneally twice a week, the first injection was performed at 3 mL/kg, and then injection was performed at 2 mL/kg. Modeling was performed for 8 weeks to induce hepatic fibrosis. After the intraperitoneal injection of CCl4 for the fourth time, the drugs were administered according to Table 3. After induction for 8 weeks, the administration was stopped. The SD rats were dissected the next day, and blood was taken. The liver tissue was stored in a refrigerator at −80° C. for further use. The expression of HYP in the hepatic tissue of rats was detected. [table]

[6] = listed as recombinant fused polypeptide II
[7] = listed as recombinant fused polypeptide III

B1: Acetyl-SDKPGGGGTSLDASIIWAMMQNGGGGLSKLGGGGSGGGGSGGGGSPRCWRGEGGGGIVRRADRAAVPGGGGRGD (protein)
chain: SDKPGGGGTSLDASIIWAMMQNGGGGLSKLGGGGSGGGGSGGGGSPRCWRGEGGGGIVRRADRAAVPGGGGRGD
modifications: N-acetyl
notes: Recombinant fused polypeptide Y-linker1-X expressed in 293 cells
For B1, the “content of TGF-β1 in serum, difference from the model group” value (“content of TGF-β1 in serum, difference” below) ([1]; FIG. 4, listed as recombinant fused polypeptide 2, 6 mg/kg) was “highly significantly different from the model group (***P<0.001)”, the “content of TGF-β1 in serum, difference” value ([1]; FIG. 4, listed as recombinant fused polypeptide II, 6 mg/kg) was “can lower the TGF-β1 content” and the “Survival rate (%)” value [2] was 85.7%. For the same molecule, the “Survival rate (%)” value ([2]; listed as fused polypeptide 2) was “equivalent to that of the positive drug group”, the “hydroxyproline (HYP) content in lung tissue” value [2] was “can lower the hydroxyproline content” and the “content of TGF-β1 in serum, difference” value ([2]; FIG. 2, listed as fused polypeptide 2) was “highly significant different from the model group (***P<0.001)”. For the same molecule, the “content of TGF-β1 in serum, difference” value ([2]; FIG. 2, listed as recombinant fused polypeptide II) was “can lower the TGF-β1 content”, the “Inhibitory effect, Bacterial pneumonia” value (Streptococcus pneumoniae) was 49.18 ± 5.32 and the “Inhibitory effect, Protozoal pneumonia” value (protozoa) was 66.13 ± 5.36. The “Inhibitory effect, Chlamydia pneumonia” value (Chlamydia pneumoniae) was 50.21 ± 4.85, the “Inhibitory effect, Mycoplasma pneumonia” value (Mycoplasma pneumoniae) was 45.72 ± 5.69 and the “Inhibitory effect, Pneumonia caused by pulmonary infections” value (from here on “Inhibitory effect, Pneumonia caused”) (pulmonary infections) was 65.87 ± 3.19. For the same molecule, the “Inhibitory effect, Pneumonia caused” value (pulmonary infections; [6]) was “inhibitory effect”, the “content of HYP in skin tissue, difference from the model group” value ([3]; listed as recombinant fused polypeptide 2, 10 mg/kg) was “highly significantly different from the model group (***P<0.001)” and the “content of HYP in skin tissue, difference from the model group” value ([3]; listed as recombinant fused polypeptide II, 10 mg/kg) was “can lower the hydroxyproline content”. For the same molecule, the “content of TGF-β1 in serum, difference” value ([4]; listed as recombinant fused polypeptide 2) was “highly significantly different from the model group (***P<0.001)”, the “content of TGF-β1 in serum, difference” value [4, 6] was “can lower the TGF-β1 content” and the “Inhibitory effect, Viral pneumonia” value (adenovirus) was 58.08 ± 5.27. For the same molecule, the “Inhibitory effect, Fungal pneumonia” value (pneumonia fungi) was 63.07 ± 3.02, the “content of HYP in liver tissue, difference from the model group” value ([5]; FIG. 3, listed as Recombinant fused polypeptide 2) was “highly significantly different from the model group (***P<0.001)” and the “content of HYP in liver tissue, difference from the model group” value ([5]; FIG. 3, listed as recombinant fused polypeptide II) was “can lower the HYP content”.

B2: PRCWRGEGGGGIVRRADRAAVPGGGGRGDAEAAAKEAAAKEAAAKEAAAKKSDKPGGGGTSLDASIIWAMMQNGGGGLSKL (protein)
chain: PRCWRGEGGGGIVRRADRAAVPGGGGRGDAEAAAKEAAAKEAAAKEAAAKKSDKPGGGGTSLDASIIWAMMQNGGGGLSKL
notes: Recombinant fused polypeptide X-linker2-Y expressed in 293 cells
For B2, the “content of TGF-β1 in serum, difference” value ([1]; FIG. 4, listed as recombinant fused polypeptide 3, 6 mg/kg) was “highly significantly different from the model group (**P<0.01)”, the “content of TGF-β1 in serum, difference” value ([1]; FIG. 4, listed as recombinant fused polypeptide III, 6 mg/kg) was “can lower the TGF-β1 content” and the “Survival rate (%)” value [2] was 85.7%. The “Survival rate (%)” value ([2]; listed as fused polypeptide 3) was “equivalent to that of the positive drug group”, the “hydroxyproline (HYP) content in lung tissue” value [2] was “can lower the hydroxyproline content” and the “content of TGF-β1 in serum, difference” value ([2]; FIG. 2, listed as fused polypeptide 3) was “highly significantly different from the model group (**P<0.01)”. The “content of TGF-β1 in serum, difference” value ([2]; FIG. 2, listed as recombinant fused polypeptide III) was “can lower the TGF-β1 content”, the “Inhibitory effect, Bacterial pneumonia” value (Streptococcus pneumoniae) was 48.79 ± 7.26 and the “Inhibitory effect, Protozoal pneumonia” value (protozoa) was 68.29 ± 4.70. For the same molecule, the “Inhibitory effect, Chlamydia pneumonia” value (Chlamydia pneumoniae) was 55.78 ± 4.32, the “Inhibitory effect, Mycoplasma pneumonia” value (Mycoplasma pneumoniae) was 45.53 ± 4.33 and the “Inhibitory effect, Pneumonia caused” value (pulmonary infections) was 58.81 ± 4.10. The “Inhibitory effect, Pneumonia caused” value (pulmonary infections; [7]) was “inhibitory effect”, the “content of HYP in skin tissue, difference from the model group” value ([3]; listed as recombinant fused polypeptide 3, 10 mg/kg) was “highly significantly different from the model group (**P<0.01)” and the “content of HYP in skin tissue, difference from the model group” value ([3]; listed as recombinant fused polypeptide III, 10 mg/kg) was “can lower the hydroxyproline content”. For the same molecule, the “content of TGF-β1 in serum, difference” value ([4]; listed as recombinant fused polypeptide 3) was “significantly different from the model group (**P<0.01)”, the “content of TGF-β1 in serum, difference” value [4, 7] was “can lower the TGF-β1 content” and the “Inhibitory effect, Viral pneumonia” value (adenovirus) was 69.54 ± 7.49. For the same molecule, the “Inhibitory effect, Fungal pneumonia” value (pneumonia fungi) was 65.98 ± 3.64, the “content of HYP in liver tissue, difference from the model group” value ([5]; FIG. 3, listed as Recombinant fused polypeptide 3) was “highly significantly different from the model group (***P<0.001)” and the “content of HYP in liver tissue, difference from the model group” value ([5]; FIG. 3, listed as recombinant fused polypeptide III) was “can lower the HYP content”.
